Results taken from the supplement of paper PMC10724198.
± gives the standard deviation of the averaged measurements.

Tested on: Saccharomyces cerevisiae
Experiment: protein stability index of tFT-peptide fusion (C-terminal peptide) (PSI (0-1 scale)); higher = more stable (slower turnover)
Settings: genetic background: wild type; temperature: 30 C
Procedure: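 Multiplexed protein stability (MPS) profiling in S. cerevisiae. Random 12-aa peptides (tFT-X12 library) are fused to the C-terminus of a sfGFP-mCherry tandem fluorescent timer, after mCherry and a GGGS linker. Cells are FACS-sorted into 8 mCherry/sfGFP bins and deep-sequenced. The protein stability index (PSI) is the read-weighted bin average, scaled from 0 (unstable) to 1 (stable). Only peptides with >10 reads are reported; cells were grown at 30 °C in SC-His with glucose.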
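Further: PSI is a weighted mean of sequencing reads over stability bins, variants kept only with over 10 reads, mCherry proximal and sfGFP distal, peptide attached via GGGS linker.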

Sequence	protein stability index
PPPPSRPPPPRL	0.789 ± 0.021
RPPPPPPPRFPP	0.706 ± 0.041
PLLCPASIHVTL	0.679 ± 0.046
MRECGLSEARGG	0.651 ± 0.021
GVSVICGFPVSC	0.732 ± 0.056
SRLFSFLYDVTA	0.665 ± 0.036
GQSQSGIFRTIF	0.72 ± 0.024
GRIAGGGGGWRW	0.648 ± 0.064
FKIFSGLVTLGG	0.7337 ± 0.0036
CSAGLSDRGFCE	0.663 ± 0.023
LSPAPPHRYSPY	0.7 ± 0.043
WFDVVALPCLSF	0.562 ± 0.0084
WSRSEIGDGSAG	0.742 ± 0.023
RSICTEGLDIGC	0.659 ± 0.033
ATPPHLLPAPLA	0.656 ± 0.011
NKKDKKMNKDKR	0.6791 ± 0.0014
QPRAKNFRNPCP	0.661 ± 0.1
PSLSPPVHALLF	0.722 ± 0.013
SGAGRRMGGARE	0.657 ± 0.051
SHPRHSHLPFSP	0.725 ± 0.079
GFVFSRGLERPL	0.675 ± 0.062
PNCAPLTAPRRR	0.7159 ± 0.0069
VCGNRLSATAIT	0.684 ± 0.084
VTLSPSLPGFPL	0.6839 ± 0.00089
PRSAPSPRRSPA	0.757 ± 0.034

Sequence	protein stability index
ARPRSGIRGSGV	0.6848 ± 0.0048
RKIRIDKQRKVK	0.716 ± 0.033
PPAPLALPRLPS	0.715 ± 0.061
YAGGLWEGYRHW	0.636 ± 0.063
GCRARKSRRTPT	0.664 ± 0.011
LICQNPVADPRT	0.711 ± 0.042
RYSPPPPPIPSP	0.715 ± 0.0022
KKKKKKQKHKKI	0.718 ± 0.033
GSLWGVFFRGLL	0.647 ± 0.037
RTGTIPAPFHHE	0.675 ± 0.0074
DDAVTHTLWVSE	0.692 ± 0.012
KIKTTKKIKKKK	0.681 ± 0.032
VGFGTGGAVGVE	0.687 ± 0.041
KKKENKNEKKKE	0.692 ± 0.06
RRRAINIPNNRL	0.712 ± 0.016
PSPPTPSPPPPP	0.712 ± 0.062
GVEGASVLGWGR	0.704 ± 0.19
LPKTSPRSRRER	0.6868 ± 0.0053
PPSLHSRAFTLS	0.557 ± 0.2
TLPPPRPSPSSP	0.689 ± 0.035
KKKKKKKKKKQN	0.62 ± 0.039
WPFMGLSAGCLR	0.691 ± 0.028
LNGRYGGFGHRC	0.7009 ± 0.007
EVEGFLFVFEVK	0.609 ± 0.015
APTRVDTAGSCV	0.676 ± 0.051

Sequence	protein stability index
SKKKKRRKEQEK	0.745 ± 0.03
GLFSRGKLIALS	0.571 ± 0.099
VQLGLGPDSSRS	0.694 ± 0.019
QYSLGLGQVQVI	0.662 ± 0.033
KIKNHQRQIMNT	0.494 ± 0.092
RWLGNPLLQRYH	0.567 ± 0.043
KTTVENEQRKEK	0.698 ± 0.079
SCVAGSSHWTSI	0.712 ± 0.24
SCPSLPPPPPCL	0.735 ± 0.04
PGPPPGTDAFQH	0.718 ± 0.12
KEKKGNKTKKQN	0.657 ± 0.017
GLGKWGGGGDER	0.723 ± 0.012
SCQSPSSQEYST	0.751 ± 0.056
GGNDIIQNRKGK	0.674 ± 0.039
LVIWSFYSEGIV	0.52 ± 0.017
LPPPPRPRSLLS	0.693 ± 0.047
SPPRPPAPPSPT	0.701 ± 0.014
SGRSQHFVSFLR	0.664 ± 0.018
LSSWPFLPLVRI	0.593 ± 0.02
TVWCRLKGEGRS	0.737 ± 0.084
NKRIRKIKKKCK	0.701 ± 0.065
RYLFAAVSFGYA	0.726 ± 0.032
LVGGGVGVGSLV	0.66 ± 0.011
STAPQDPARPSE	0.707 ± 0.028
PPPPPPLPPSAA	0.711 ± 0.0091

Sequence	protein stability index
YGTLCPLNGCGI	0.633 ± 0.068
TSRKNRVKASVP	0.739 ± 0.039
RPLLPPVLPPPL	0.684 ± 0.019
RGEHKDYFYVMT	0.651 ± 0.0076
PHPERLLCPPYP	0.68 ± 0.024
RSGGGVARRSYR	0.662 ± 0.013
PRKVNAHKDTCH	0.693 ± 0.022
SGCSWRGSPVKE	0.636 ± 0.0076
CLTRFFQPYGSL	0.667 ± 0.059
PSPWPPPPSDPP	0.552 ± 0.12
PPVLTLFMPSYS	0.7051 ± 0.0043
GERDWRAKRTRE	0.692 ± 0.055
APPHLVTYPLCP	0.66 ± 0.067
LGRLFPTSLPPR	0.739 ± 0.17
GVACEGRGGRCW	0.689 ± 0.012
PFLLPPLPPGPL	0.706 ± 0.062
RSQICWFFFQCI	0.53 ± 0.036
AVRCEEKGLLLS	0.674 ± 0.017
KEEIRNKIKTIK	0.6809 ± 0.0063
LSHPPPPPSSAT	0.716 ± 0.027
PLVSPPPLPHRP	0.69 ± 0.02
VEAVSLVFLYGV	0.552 ± 0.012
HPAAPPPPPPPR	0.732 ± 0.066
